Results published in publication PMC6949295 (2020).
Blank lines part the entries; values can stand above or below the substance they belong to.

How the values were obtained:
Test in all cases: co-immunoprecipitation (IP: HA, blot: Flag)
Conditions in all cases: 293T cells; parent: 1.00
[1] = target: HA-Exo70(S59D)
[2] = target: HA-Exo70(S47D)
[3] = target: HA-Exo70(S47D/S59D)

response (relative band intensity) [1]: 1
Substance: Exo70 wild type, HA-tagged and Flag-tagged copies co-expressed (from UniProt O54922) S59D

response (relative band intensity) [2]: 1
Substance: Exo70 wild type, HA-tagged and Flag-tagged copies co-expressed (from UniProt O54922) S47D

response (relative band intensity) [3]: 0.96
Substance: Exo70 wild type, HA-tagged and Flag-tagged copies co-expressed (from UniProt O54922) S47D; S59D
